Measured values published in paper PMC7102954, “A crucial RNA-binding lysine residue in the Nab3 RRM domain undergoes SET1 and SET3-responsive methylation”.

Experiments:
Details in all cases: protein: recombinant; tags: N-terminal His6 (pET28a)
Nab3 RRM K363R = target: T1, Nab3 RRM K363R (Saccharomyces cerevisiae, UniProt P38996 329-419, K363R); experiment: pull-down (streptavidin, anti-His blot densitometry); 25 uM RNA; protein 0-60 uM; apparent Kd; 10 mM Tris-HCl pH 7.8, 50 mM NaCl, 1 mM EDTA, 5% glycerol, 2.5 mM DTT; 30 min at 15 C, then beads 2 h at 4 C; washes with 0.1% Tween-20
T1 sequence: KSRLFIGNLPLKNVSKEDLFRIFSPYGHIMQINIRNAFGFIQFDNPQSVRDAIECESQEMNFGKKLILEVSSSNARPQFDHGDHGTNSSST

Nab3 RRM = target: T2, Nab3 RRM (Saccharomyces cerevisiae, UniProt P38996 329-419); experiment: as above
T2 sequence: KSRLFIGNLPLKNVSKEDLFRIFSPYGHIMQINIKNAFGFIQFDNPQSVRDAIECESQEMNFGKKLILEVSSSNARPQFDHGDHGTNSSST

Nab3 RRM K363A = target: T3, Nab3 RRM K363A (Saccharomyces cerevisiae, UniProt P38996 329-419, K363A); experiment: pull-down (streptavidin, anti-His blot); 25 uM RNA; 10 mM Tris-HCl pH 7.8, 50 mM NaCl, 1 mM EDTA, 5% glycerol, 2.5 mM DTT; 30 min at 15 C, then beads 2 h at 4 C; washes with 0.1% Tween-20
T3 sequence: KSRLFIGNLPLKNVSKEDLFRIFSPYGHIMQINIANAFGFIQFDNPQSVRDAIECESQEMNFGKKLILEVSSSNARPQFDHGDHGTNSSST

Nab3 RRM S399A = target: T4, Nab3 RRM S399A (Saccharomyces cerevisiae, UniProt P38996 329-419, S399A); experiment: as above
T4 sequence: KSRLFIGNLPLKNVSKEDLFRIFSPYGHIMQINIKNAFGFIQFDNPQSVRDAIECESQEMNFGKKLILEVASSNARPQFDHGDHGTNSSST

Question: Which Kd (Nab3 RRM K363R) does the source give for UUUCUUUUUUCUUAUUCUUAUU (ssRNA) [snR47 RNA probe] here?
Answer: The Kd was 41.9 µM.

Question: What about the Kd (Nab3 RRM) of the same binder?
Answer: Its Kd is 13.7 µM.

Question: Does UUUCUUUUUUCUUAUUCUUAUU (ssRNA) [snR47 RNA probe] bind (Nab3 RRM K363A)?
Answer: Result: no binding

Question: Does UUUCUUUUUUCUUAUUCUUAUU (ssRNA) [snR47 RNA probe] bind (Nab3 RRM S399A)?
Answer: Result: no binding
